Measured values published in paper PMC10663500.
Positions count from the first letter of the chain named. Names may count otherwise.

T1: mouse programmed cell death protein 1 C60S (aa 25-167) Fc fusion protein, Q02242
T1 chain: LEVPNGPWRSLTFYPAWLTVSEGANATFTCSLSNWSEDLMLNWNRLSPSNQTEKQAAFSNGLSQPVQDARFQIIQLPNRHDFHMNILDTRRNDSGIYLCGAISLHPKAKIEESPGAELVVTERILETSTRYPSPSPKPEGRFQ

B1: toripalimab Fab (wild-type) L:L101A (protein)
chain 1: QGQLVQSGAEVKKPGASVKVSCKASGYTFTDYEMHWVRQAPIHGLEWIGVIESETGGTAYNQKFKGRVTITADKSTSTAYMELSSLRSEDTAVYYCAREGITTVATTYYWYFDVWGQGTTVTVSS
chain 2: DVVMTQSPLSLPVTLGQPASISCRSSQSIVHSNGNTYLEWYLQKPGQSPQLLIYKVSNRFSGVPDRFSGSGSGTDFTLKISRVEAEDVGVYYCFQGSHVPATFGQGTKLEIK
B2: toripalimab Fab (wild-type) L:V99A (protein)
chain 1: B1 chain 1
chain 2: B1 chain 2 with V99A, A101L
B3: toripalimab Fab (wild-type) L:V99G (protein)
chain 1: B1 chain 1
chain 2: B1 chain 2 with V99G, A101L
B4: toripalimab Fab (wild-type) L:P100H (protein)
chain 1: B1 chain 1
chain 2: B1 chain 2 with P100H, A101L

How the values were obtained:
[1] = target: T1, mouse programmed cell death protein 1 …; test: BreviA (SPR); details: chain shown with the change;, read off a plot; for Kd: parent: est. 1.2e-7 M
[2] = target: T2, human programmed cell death protein 1 C93S (aa 24-167), Q15116; test: BreviA (SPR); details: chain shown with the change;; parent: est. 910 pM; read off a plot
[3] = target: T2, human programmed cell death protein 1 …; test: SPR; details: chain shown with the change; top curve (taken as 1024 nM hPD-1), read at end of association, about 570 s; antibody immobilized as ligand; parent: est. 740; read off a plot

T2 sequence (Q15116 24-167 C93S): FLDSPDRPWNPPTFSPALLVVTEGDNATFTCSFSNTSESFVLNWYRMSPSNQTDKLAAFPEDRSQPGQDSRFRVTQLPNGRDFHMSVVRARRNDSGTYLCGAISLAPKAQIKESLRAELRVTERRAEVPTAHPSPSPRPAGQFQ

Row | Binder | Kd [1] | koff ([1]; parent: est. 5.9e-3 s-1) | Kd [2] | response [3]
1 | B1 | 26 nM | – | – | –
2 | B2 | – | 0.00036 s⁻¹ | – | –
3 | B3 | – | – | 2 nM | 770 RU
4 | B4 | 1 nM | – | – | 470 RU
